Laboratory results from the supplement of paper PMC7877785.
± gives the uncertainty stated by the source.

Assay: self-splicing fitness, log relative to wild type (ln ratio); higher = more splicing; Tetrahymena group I intron in knt gene, E. coli kanamycin selection, DiMSum; sequences stand for … in CUCUCU…GGAGGGAAAAGUUAUCAGGCAUGCACCUGGUAGCUAGUCUUUAAACCAAUAGAUUGCAUCGGUUUAAAAGGCAAGACCGUCAAAUUGCGGGAAAGGGGUCAACAGCCGUUCAGUACCAAGUCUCAGGGGAAACUUUGAGAUGGCCUUGCAAAGGGUAUGGUAAUAAGCUGACGGACAUGGUCCUAACCACGCAGCCAAGUCCUAAGUCAACAGAUCUUCUGUUGAUAUGGAUGCAGUUCACAGACUAAAUGUCGGUCGGGGAAGAUGUAUUCUUCUCAUAAGAUAUAGUCGGACCUCUCCUUAAUGGGAGCUAGCGGAUGAAGUGAUGCAACACUGGAGCCGCUGGGAACUAAUUUGUAUGCGAAAGUAUAUUGAUUAGUUUUGGAGUACUCGUGGUCG
How it was run: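 A randomised library covering all eight P1ex-region intron nucleotides was built with the intron in the knt kanamycin-resistance gene on pET-22b(+) and held in E. coli BL21(DE3). Cells were grown overnight at 37°C or 30°C on LB agar, with or without 25 μg/mL kanamycin, plus 100 μg/mL carbenicillin, 50 μM IPTG and 0.2% rhamnose, and pooled colonies were amplicon-sequenced on an Illumina HiSeq 2500. DiMSum fitness is the error-weighted combination of wild-type-normalised replicate fold changes, kanamycin versus none.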

In the case of UAGCAGCAAUAUUACGGGAA, the “self-splicing fitness (ln)” value (30 °C) is reported as -2.47 ± 0.19 and the “self-splicing fitness (ln)” value (37 °C) is reported as -1.41 ± 0.18.
With UAGCAGCAAUAUUACGGGCC the “self-splicing fitness (ln)” value (30 °C) was -1.45 ± 0.21 and the “self-splicing fitness (ln)” value (37 °C) was -2.55 ± 0.36.
For UAGCAGCAAUAUUACGGGGU, the “self-splicing fitness (ln)” value (30 °C) was -3.72 ± 0.14 and the “self-splicing fitness (ln)” value (37 °C) was -2.99 ± 0.16.
With UAGCAGCAAUAUUACGGGUA the “self-splicing fitness (ln)” value (30 °C) was -0.507 ± 0.052 and the “self-splicing fitness (ln)” value (37 °C) was 0.13 ± 0.057.
In the case of UAGCAGCAAUAUUACGGUGG, the “self-splicing fitness (ln)” value (30 °C) is reported as -1.85 ± 0.089 and the “self-splicing fitness (ln)” value (37 °C) is reported as -1.12 ± 0.1.
With UAGCAGCAAUAUUACGUAAA the “self-splicing fitness (ln)” value (30 °C) was -1.73 ± 0.099 and the “self-splicing fitness (ln)” value (37 °C) was -1.32 ± 0.13.
In the case of UAGCAGCAAUAUUACGUAAU, the “self-splicing fitness (ln)” value (30 °C) is reported as -3.27 ± 0.12 and the “self-splicing fitness (ln)” value (37 °C) is reported as -0.695 ± 0.089.
For UAGCAGCAAUAUUACGUGAC, the “self-splicing fitness (ln)” value (30 °C) was -3.19 ± 0.18 and the “self-splicing fitness (ln)” value (37 °C) was -3.45 ± 0.28.
In the case of UAGCAGCAAUAUUACGUGAG, the “self-splicing fitness (ln)” value (30 °C) is reported as -0.937 ± 0.035 and the “self-splicing fitness (ln)” value (37 °C) is reported as -0.228 ± 0.056.
With UAGCAGCAAUAUUACGUGGG the “self-splicing fitness (ln)” value (30 °C) was -3.61 ± 0.11 and the “self-splicing fitness (ln)” value (37 °C) was -2.42 ± 0.13.
For UAGCAGCAAUAUUACGUUAA, the “self-splicing fitness (ln)” value (30 °C) was -2.13 ± 0.099 and the “self-splicing fitness (ln)” value (37 °C) was -1.15 ± 0.084.
In the case of UAGCAGCAAUAUUACGUUAG, the “self-splicing fitness (ln)” value (30 °C) is reported as -3.08 ± 0.12 and the “self-splicing fitness (ln)” value (37 °C) is reported as -1.34 ± 0.13.
For UAGCAGCAAUAUUACGUUUG, the “self-splicing fitness (ln)” value (30 °C) was -1.29 ± 0.077 and the “self-splicing fitness (ln)” value (37 °C) was -1.12 ± 0.11.
For UAGCAGCAAUAUUACGUUUU, the “self-splicing fitness (ln)” value (30 °C) was -2.6 ± 0.12 and the “self-splicing fitness (ln)” value (37 °C) was -2.31 ± 0.19.
With UAGGAGCAAUAUUACGAGAG the “self-splicing fitness (ln)” value (30 °C) was -3.02 ± 0.21.
With UAGGAGCAAUAUUACGAUAU the “self-splicing fitness (ln)” value (30 °C) was -3.96 ± 0.33 and the “self-splicing fitness (ln)” value (37 °C) was -2.46 ± 0.28.
With UAGGAGCAAUAUUACGCAAU the “self-splicing fitness (ln)” value (37 °C) was -1.73 ± 0.38.
With UAGGAGCAAUAUUACGCCAU the “self-splicing fitness (ln)” value (30 °C) was -3.74 ± 0.43 and the “self-splicing fitness (ln)” value (37 °C) was -2.72 ± 0.48.
With UAGGAGCAAUAUUACGCGGC the “self-splicing fitness (ln)” value (30 °C) was -2.42 ± 0.39.
In the case of UAGGAGCAAUAUUACGCUAA, the “self-splicing fitness (ln)” value (37 °C) is reported as -1.57 ± 0.41.
For UAGGAGCAAUAUUACGCUCA, the “self-splicing fitness (ln)” value (30 °C) was -1.55 ± 0.19 and the “self-splicing fitness (ln)” value (37 °C) was -1.37 ± 0.16.
In the case of UAGGAGCAAUAUUACGCUUU, the “self-splicing fitness (ln)” value (30 °C) is reported as -2.54 ± 0.32 and the “self-splicing fitness (ln)” value (37 °C) is reported as -1.66 ± 0.29.
With UAGGAGCAAUAUUACGGACU the “self-splicing fitness (ln)” value (30 °C) was -3.22 ± 0.25 and the “self-splicing fitness (ln)” value (37 °C) was -2.41 ± 0.22.
For UAGGAGCAAUAUUACGGAGG, the “self-splicing fitness (ln)” value (30 °C) was -4.35 ± 0.42 and the “self-splicing fitness (ln)” value (37 °C) was -2.73 ± 0.32.
In the case of UAGGAGCAAUAUUACGGUUG, the “self-splicing fitness (ln)” value (30 °C) is reported as -3.11 ± 0.36 and the “self-splicing fitness (ln)” value (37 °C) is reported as -2.4 ± 0.24.
In the case of UAGGAGCAAUAUUACGUACA, the “self-splicing fitness (ln)” value (30 °C) is reported as -2.47 ± 0.22 and the “self-splicing fitness (ln)” value (37 °C) is reported as -0.906 ± 0.18.
In the case of UAGGAGCAAUAUUACGUGGG, the “self-splicing fitness (ln)” value (30 °C) is reported as -3.17 ± 0.24 and the “self-splicing fitness (ln)” value (37 °C) is reported as -3.32 ± 0.38.
For UAGGAGCAAUAUUACGUUAG, the “self-splicing fitness (ln)” value (30 °C) was -3.8 ± 0.3 and the “self-splicing fitness (ln)” value (37 °C) was -2.71 ± 0.49.
With UAGGAGCAAUAUUACGUUCA the “self-splicing fitness (ln)” value (30 °C) was -2.05 ± 0.16 and the “self-splicing fitness (ln)” value (37 °C) was -1.02 ± 0.19.
In the case of UAGUAGCAAUAUUACGAACG, the “self-splicing fitness (ln)” value (30 °C) is reported as -0.961 ± 0.13 and the “self-splicing fitness (ln)” value (37 °C) is reported as -0.0932 ± 0.15.
For UAGUAGCAAUAUUACGACGC, the “self-splicing fitness (ln)” value (30 °C) was -3.61 ± 0.25 and the “self-splicing fitness (ln)” value (37 °C) was -0.996 ± 0.21.
In the case of UAGUAGCAAUAUUACGACUA, the “self-splicing fitness (ln)” value (30 °C) is reported as -0.0384 ± 0.12 and the “self-splicing fitness (ln)” value (37 °C) is reported as 0.251 ± 0.12.
With UAGUAGCAAUAUUACGAGUA the “self-splicing fitness (ln)” value (30 °C) was -1.44 ± 0.11 and the “self-splicing fitness (ln)” value (37 °C) was -0.61 ± 0.084.
With UAGUAGCAAUAUUACGAUAC the “self-splicing fitness (ln)” value (30 °C) was -2.73 ± 0.44.
In the case of UAGUAGCAAUAUUACGAUCA, the “self-splicing fitness (ln)” value (30 °C) is reported as -0.544 ± 0.088 and the “self-splicing fitness (ln)” value (37 °C) is reported as 0.306 ± 0.12.
In the case of UAGUAGCAAUAUUACGAUGA, the “self-splicing fitness (ln)” value (30 °C) is reported as -1.59 ± 0.26 and the “self-splicing fitness (ln)” value (37 °C) is reported as -1.7 ± 0.28.
For UAGUAGCAAUAUUACGCCGU, the “self-splicing fitness (ln)” value (30 °C) was -2.58 ± 0.24 and the “self-splicing fitness (ln)” value (37 °C) was -2.23 ± 0.3.
In the case of UAGUAGCAAUAUUACGCUAA, the “self-splicing fitness (ln)” value (30 °C) is reported as -2.12 ± 0.28 and the “self-splicing fitness (ln)” value (37 °C) is reported as -1.3 ± 0.15.
With UAGUAGCAAUAUUACGCUUC the “self-splicing fitness (ln)” value (37 °C) was -1.91 ± 0.37.
